B1: Fcf1: dTDP-6-deoxy-D-xylo-hex-4-ulopyranose reductase of E. coli O52, 316 amino acids, SEQ ID NO:3 (protein)
chain: MDARKNGVLITGGAGFIGKALITEMVERQIPLVSFDISDKPDSLPELSEYFNWYKFSYLESSQRIKELHEIVSRHNIKTVIHLATTMFPHESKKNIDKDCLENVYANVCFFKNLYENGCEKIIFASSGGTVYGKSDTPFSEDDALLPEISYGLSKVMTETYLRFIAKELNGKSISLRISNPYGEGQRIDGKQGVIPIFLNKISNDIPIDIIGSIESKRDYIYISDLVQAFMCSLEYEGHEDIFNIGSGESITLKKLIETIEFKLNKKAVIGFQDPIHTNANGIILDIKRAMAELGWRPTVVLDDGIDKLIKSIRCK
modifications: E. coli O52
B2: Fcf2: dTDP-D-Fucp mutase of E. coli O52 converting dTDP-D-Fucp to dTDP-D-Fucf, 377 amino acids, SEQ ID NO:4 (protein)
chain: MNKVLIIGSGFSGATIARLLAEENIKVKIIDDRKHIGGNCYDERDEKTGINVHVYGPHIFHTDNEDVWNFVNKYGTFQPYTTRLKANAKGQIYSLPVNLHTINQYYKTALSPTEARKLIASKGDQTINDPQSFEEQALKFVGEDLYKTFFYGYPKKQWGMEPKEIPASVLKRLPVRFNYDDNYFFHKFQGIPRDGYTPLFQNLLNHPNIEFELGKKVNRATVEELITSEQYGHVFFSGAIDHFYDYEFGMLQYRTLDFEKFYSEDDDYQGCVVMSYCDEDVPYTRVTEHKYFTPWEEHKGSVLYKEFSRSCDKEDIPYYPVRLVSGNSIWNKYEQKAKEETNITFIGRLATYRYLDMDVCIKEAIECAQLYIKNNKE
modifications: E. coli O52

Tests used:
[1] = Enzyme activity assay of Fcf1: temperature optima and kinetic parameters (capillary electrophoresis); type: biochemical, E. coli O52; conditions: for Transformation rate (%): 2 hours, 2 mM dTDP-D-Glco, 3 mM NADPH, 0.25 μM enzyme
Procedure: 20 μl reactions in 0.5 ml centrifugal tube contain 2 mM dTDP-D-Glco, 3 mM NADPH, 50 mM Tris-HCl buffer (pH7.4), 5 mM divalent ion chloride and 0.25 μM recombinant dTDP-D-GIcO reductase protein purified in example 2. The reactions are proceeded at certain temperatures for 2 hours. Then add chloroform of equal volume to extract protein. The aqueous phase is detected by Beckman Coulter P/ACE MDQ capillary electrophoresis.
In the condition of the foregoing reaction (37° C., 3 mM MADPH, 50 mM Tris-HCl buffer (pH 7.4), 0.25 μM enzyme, 30 seconds), the concentration of dTDP-GIcO is 0.1-1 mM. Measure the concentration of dTDP-Qui4N.

[2] = Enzyme activity assay of Fcf2: temperature optima (capillary electrophoresis); type: biochemical, E. coli O52; conditions: for Transformation rate (%): 3 hours, 2 mM dTDP-D-fucose, 3.9 μM enzyme
Procedure: 25 μl reactions in 0.5 ml centrifugal tube contain 2 mM dTDP-D-fucose, 50 mM Tris-HCl buffer (pH 7.4) 5 mM divalent ion chloride and 3.9 μM recombinant dTDP-D-Glcfucofuranose mutase protein purified in example 2. The reactions are proceeded at certain temperature for 3 hours. Then add chloroform of equal volume to extract protein. The aqueous phase is detected by Beckman Coulter P/ACE MDQ capillary electrophoresis.

[3] = 37° C., pH 7.4, 0.25 μM enzyme, 30 seconds, dTDP-GIcO 0.1-1 mM, Michaelis-Menten equation

Molecule	Transformation rate (%) ([1]; 4° C.)	Transformation rate (%) ([1]; 15° C.)	Transformation rate (%) ([1]; 25° C.)	Transformation rate (%) ([1]; 37° C.)	Km [1, 3]	kcat [1, 3]	Transformation rate (%) ([1]; 50° C.)	Transformation rate (%) ([1]; 65° C.)	Transformation rate (%) ([1]; 80° C.)	optimum temperature for the enzyme activity ([1]; standard reactions at 4-80° C.)	Transformation rate (%) ([2]; 4° C.)	Transformation rate (%) ([2]; 15° C.)	Transformation rate (%) ([2]; 25° C.)	Transformation rate (%) ([2]; 37° C.)	Transformation rate (%) ([2]; 50° C.)	Transformation rate (%) ([2]; 65° C.)	Transformation rate (%) ([2]; 80° C.)	optimum temperature for the enzyme activity ([2]; standard reactions at 4-80° C.)
B1	47.0%	100%	100%	100%	540 µM	15.9 s⁻¹	35.5%	31%	22%	15-37 °C	–	–	–	–	–	–	–	–
B2	–	–	–	–	–	–	–	–	–	–	1.6%	9.5%	9.6%	9.6%	4.7%	0%	0%	37 °C
